From US11130803B2, “Isoform-selective TGFβ1 inhibitors and use thereof” (Scholar Rock, Inc., priority 2018, dated 2021)
Numbering of substitutions follows the chain as printed. Read-outs that look alike come from different tables or passages of the source.

B1: Ab11: monoclonal antibody; VH SEQ ID NO: 239, VL SEQ ID NO: 241 (antibody, V domains shown)
VH: EVQLLESGGGLVQPGGSLRLSCAASGFTFRNYAMSWVRQAPGKGLEWVSSISGSGGATYYADSVKGRFTISRDNSKNTLYLQMNSLRAEDTAVYYCARVSSGHWDFDYWGQGTLVTVSS
VL: DIQLTQSPSSLSASVGDRVTITCRASQSISSYLNWYQQKPGKAPKLLIYAASNLQSGVPSRFSGSGSGTDFTLTISSLQPEDFATYYCQQTYTVPLTFGGGTKVEIK
B2: Ab20: monoclonal antibody; VH SEQ ID NO: 251, VL SEQ ID NO: 241 (antibody, V domains shown)
VH: B1 VH with R30S, N31A, S35T, S50A, A57V, F106Y
VL: B1 VL
B3: Ab22: monoclonal antibody; VH SEQ ID NO: 130, VL SEQ ID NO: 15 (antibody, V domains shown)
VH: EVQLVESGGGLVQPGGSLRLSCAASGFTFGSFSMNWVRQAPGKGLEWVSYIHSDASTIYYADSVKGRFTISRDNAKNSLYLQMNSLRAEDTAVYYCARGVLDYGDMLDPWGQGTLVTVSS
VL: DIQMTQSPSSLSASVGDRVTITCQASQDITNYLNWYQQKPGKAPKLLIYDASNLETGVPSRFSGSGSGTDFTFTISSLQPEDIATYYCQQADNHPPWTFGGGTKVEIK
B4: Ab29: monoclonal antibody; VH SEQ ID NO: 137, VL SEQ ID NO: 15 (antibody, V domains shown)
VH: B3 VH with G16R, G30S, S33A, H52S, S53P, D62G, A97V, G99A
VL: B3 VL

Key:
[1] = test system: matrix-associated (LTBP1/LTBP3) and cell-associated (GARP/LRRC33) proTGFβ1 complexes; assay: Octet: average KD and fold bias, matrix- vs cell-associated complexes; type: binding, human; settings: for Kd: average KD of (E) and (F), cell-associated complexes, read-out: (G) Cell AVRG; for (H) G/D (fold bias): ratio of average KD cell-associated / matrix-associated
From the text: Column (A) of the table lists monoclonal antibodies with discrete amino acid sequences. […] Columns (B), (D), (E) and (F) provide affinities of each of the listed antibodies, measured in KD. […] Average KD values of (B) and (C) are shown in the corresponding column (D), which collectively represents affinities of the antibodies to ECM- or matrix-associated proTGFβ1 complexes. Similarly, Average KD values of (E) and (F) are shown in the corresponding column (G), which collectively represents affinities of the antibodies to cell-surface or cell-associated proTGFβ1 complexes. Finally, relative ratios between the average KD values from columns (D) and (G) are expressed as “fold bias” in column (H). […] This is one way of quantitatively representing and comparing inherent bias of antibodies to their target complexes.
Average KD values between the two matrix-associated and cell-associated complexes are calculated, respectively (see columns (D) and (G)). These average KD values can then be used to ask whether bias in binding activities exists between complexes associated with matrix vs. complexes associated with cell surface (e.g., immune cells). Bias may be expressed as “fold-difference” in the average KD values, as illustrated in Table 8.

[2] = test system: hLTBP1-/hLTBP3-proTGFβ1 vs hGARP-/hLRRC33-proTGFβ1 complexes; assay: Solution equilibrium titration: relative affinity (bias) LTBP complexes vs cell-associated complexes; type: binding, human; settings: for Kd / (H) G/D (fold bias): MSD-SET; for (H) G/D (fold bias): ratio of average KD cell-associated / matrix-associated
From the text: Context-biased: As used herein, “context-biased antibodies” refer to a type of conformational antibodies that binds an antigen with differential affinities when the antigen is associated with (i.e., bound to or attached to) an interacting protein or a fragment thereof. Thus, a context-biased antibody that specifically binds an epitope within proTGFβ1 may bind LTBP1-proTGFβ1, LTBP3-proTGFβ1, GARP-proTGFβ1 and LRRC33-proTGFβ1 with different affinities. […] Relative affinities of [matrix-associated complexes]: [cell-associated complexes] may be obtained by taking average KD values of the former, taking average KD values of the latter, and calculating the ratio of the two, as exemplified herein.
In a yet further aspect, the present disclosure provides context-biased TGFβ1 inhibitors. The context-biased antibodies include LTBP-biased antibodies with higher affinities for ECM-associated LLCs than for cell-associated LLCs wherein the affinities are measured at equilibrium.

[3] = molecular target: T1, hLRRC33-proTGFβ1 (Homo sapiens, UniProt P01137); assay: MSD-SET solution equilibrium titration binding; settings: MSD-SET at equilibrium, hIgG4, human complex; in M
T1 construct: made in house
From the text: (§1) Solution Equilibrium Titration (SET): The SET is an assay whereby binding between two molecules (such as an antigen and an antibody that binds the antigen) can be measured at equilibrium in a solution. For example, Meso-Scale Discovery (“MSD”)-based SET, or MSD-SET, is a useful mode of determining dissociation constants for particularly high-affinity protein-protein interactions at equilibrium, such as picomolar-affinity antibodies binding to their antigens (see, for example: Ducata et al. (2015) J Biomolecular Screening 20(10): 1256-1267). The SET-based assays are particularly useful for determining KD values of antibodies with sub-nanomolar (e.g., picomolar) affinities.
(§2) In view of this, it is contemplated that assays that measure binding affinities of such antibodies at equilibrium may more accurately represent the mode of target engagement in vivo. Thus, MSD-SET-based binding assays (or other suitable assays) may be performed, as exemplified in Table 9 below.
(§3) Solution equilibrium titration (“SET”) is an assay whereby binding between two molecules (such as an antigen and an antibody that binds the antigen) can be measured at equilibrium in a solution. For example, Meso-Scale Discovery (“MSD”)-based SET, or MSD-SET, is a useful mode of determining dissociation constants for particularly high-affinity protein-protein interactions at equilibrium (see, for example: Ducata et al. (2015) J Biomolecular Screening 20(10): 1256-1267). The SET-based assays are particularly useful for determining KD values of antibodies with sub-nanomolar (e.g., picomolar) affinities.
(§4) For solution equilibrium titration-based binding assays, protein complexes that comprise one of the presenting molecules such as those shown above may be employed as antigen (presenting molecule-TGFβ1 complex, or an LLC). Test antibodies are allowed to form antigen-antibody complex in solution. Antigen-antibody reaction mixtures are incubated to allow an equilibrium to be reached; the amount of the antigen-antibody complex present in the assay reactions can be measured by suitable means well known in the art. As compared to BLI-based assays, SET-based assays are less affected by on/off rates of the antigen-antibody complex, allowing sensitive detection of very high affinity interactions.

[4] = molecular target: T2, hGARP-proTGFβ1 (Homo sapiens, UniProt P01137); assay: MSD-SET solution equilibrium titration binding; settings: MSD-SET at equilibrium, hIgG4, human complex; in M
T2 construct: made in house
From the text: as §1, §2, §3, §4

[5] = molecular target: T3, hLTBP3-proTGFβ1 (Homo sapiens, UniProt P01137); assay: MSD-SET solution equilibrium titration binding; settings: MSD-SET at equilibrium, hIgG4, human complex; in M
T3 construct: made in house; host or cells: Expi293F cells, transient co-transfection
From the text: as §1, §2, §3, §4

[6] = molecular target: T4, hLTBP1-proTGFβ1 (Homo sapiens, UniProt P01137); assay: MSD-SET solution equilibrium titration binding; settings: MSD-SET at equilibrium, hIgG4, human complex; in M
T4 construct: made in house; host or cells: Expi293F cells, transient co-transfection
From the text: as §1, §2, §3, §4

[7] = test system: matrix-associated (LTBP1/LTBP3) and cell-associated (GARP/LRRC33) proTGFβ1 complexes; assay: Octet: average KD and fold bias, matrix- vs cell-associated complexes; type: binding, human; settings: average KD of (B) and (C), read-out: (D) ECM AVRG
[8] = average KD of (E) and (F), read-out: (G) Cell AVRG
[9] = average KD of (B) and (C), read-out: (D) ECM AVRG

T4 sequence (P01137 30-390): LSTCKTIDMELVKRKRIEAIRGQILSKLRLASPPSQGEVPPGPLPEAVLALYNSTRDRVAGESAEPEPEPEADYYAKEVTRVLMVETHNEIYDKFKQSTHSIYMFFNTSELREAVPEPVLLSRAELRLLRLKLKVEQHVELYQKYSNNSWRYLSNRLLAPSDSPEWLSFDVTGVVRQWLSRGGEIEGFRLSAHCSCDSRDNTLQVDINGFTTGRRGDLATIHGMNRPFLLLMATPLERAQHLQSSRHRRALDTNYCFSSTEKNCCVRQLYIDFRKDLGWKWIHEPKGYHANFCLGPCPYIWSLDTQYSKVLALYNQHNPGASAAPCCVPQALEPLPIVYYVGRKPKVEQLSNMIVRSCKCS
T4 sequence (Q14766 873-1507 partner): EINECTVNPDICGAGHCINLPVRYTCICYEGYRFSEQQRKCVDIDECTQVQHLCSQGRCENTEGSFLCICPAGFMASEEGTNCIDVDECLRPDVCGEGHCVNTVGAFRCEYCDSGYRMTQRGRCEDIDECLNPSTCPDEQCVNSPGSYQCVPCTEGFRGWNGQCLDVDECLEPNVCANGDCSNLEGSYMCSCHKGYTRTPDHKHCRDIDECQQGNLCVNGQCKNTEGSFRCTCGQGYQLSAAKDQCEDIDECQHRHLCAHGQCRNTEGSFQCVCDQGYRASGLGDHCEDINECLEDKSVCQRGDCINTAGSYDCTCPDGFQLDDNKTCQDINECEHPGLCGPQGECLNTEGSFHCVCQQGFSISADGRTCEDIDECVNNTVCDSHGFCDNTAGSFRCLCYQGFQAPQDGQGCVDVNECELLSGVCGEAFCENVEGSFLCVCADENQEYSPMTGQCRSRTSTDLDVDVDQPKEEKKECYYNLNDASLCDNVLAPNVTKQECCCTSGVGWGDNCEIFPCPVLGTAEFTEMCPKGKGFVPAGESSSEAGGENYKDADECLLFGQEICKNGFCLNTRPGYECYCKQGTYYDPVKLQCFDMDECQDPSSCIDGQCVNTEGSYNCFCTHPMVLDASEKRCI
T3 sequence (P01137 30-390): as the sequence (P01137 30-390) above
T3 sequence (Q9NS15 866-1039 partner limits assumed): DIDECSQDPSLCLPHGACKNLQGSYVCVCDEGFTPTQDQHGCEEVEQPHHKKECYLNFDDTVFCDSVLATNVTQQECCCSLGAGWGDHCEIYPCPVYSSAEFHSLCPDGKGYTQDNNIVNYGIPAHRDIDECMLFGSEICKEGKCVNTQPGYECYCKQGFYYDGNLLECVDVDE
T1 sequence (P01137 30-390): as the sequence (P01137 30-390) above
T1 sequence (Q86YC3 19-650 partner limits assumed): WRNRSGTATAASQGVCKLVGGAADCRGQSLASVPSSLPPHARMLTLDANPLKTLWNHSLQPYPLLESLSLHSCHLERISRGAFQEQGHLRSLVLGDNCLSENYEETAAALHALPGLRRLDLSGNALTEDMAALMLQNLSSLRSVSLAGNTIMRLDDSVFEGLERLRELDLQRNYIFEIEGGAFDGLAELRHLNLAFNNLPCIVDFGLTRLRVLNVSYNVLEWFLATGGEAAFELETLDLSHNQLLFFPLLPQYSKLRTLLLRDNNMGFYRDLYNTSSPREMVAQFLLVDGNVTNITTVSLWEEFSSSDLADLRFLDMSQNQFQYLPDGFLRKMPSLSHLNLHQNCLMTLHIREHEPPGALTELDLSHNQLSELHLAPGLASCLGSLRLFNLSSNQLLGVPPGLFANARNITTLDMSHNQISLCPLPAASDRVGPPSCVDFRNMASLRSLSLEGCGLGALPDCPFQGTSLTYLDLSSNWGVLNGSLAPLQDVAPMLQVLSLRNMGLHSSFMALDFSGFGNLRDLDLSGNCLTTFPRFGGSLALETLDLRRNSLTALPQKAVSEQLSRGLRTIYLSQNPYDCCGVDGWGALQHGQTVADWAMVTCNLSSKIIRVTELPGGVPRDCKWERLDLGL
T2 sequence (P01137 30-390): as the sequence (P01137 30-390) above
T2 sequence (Q14392 20-627 partner limits assumed): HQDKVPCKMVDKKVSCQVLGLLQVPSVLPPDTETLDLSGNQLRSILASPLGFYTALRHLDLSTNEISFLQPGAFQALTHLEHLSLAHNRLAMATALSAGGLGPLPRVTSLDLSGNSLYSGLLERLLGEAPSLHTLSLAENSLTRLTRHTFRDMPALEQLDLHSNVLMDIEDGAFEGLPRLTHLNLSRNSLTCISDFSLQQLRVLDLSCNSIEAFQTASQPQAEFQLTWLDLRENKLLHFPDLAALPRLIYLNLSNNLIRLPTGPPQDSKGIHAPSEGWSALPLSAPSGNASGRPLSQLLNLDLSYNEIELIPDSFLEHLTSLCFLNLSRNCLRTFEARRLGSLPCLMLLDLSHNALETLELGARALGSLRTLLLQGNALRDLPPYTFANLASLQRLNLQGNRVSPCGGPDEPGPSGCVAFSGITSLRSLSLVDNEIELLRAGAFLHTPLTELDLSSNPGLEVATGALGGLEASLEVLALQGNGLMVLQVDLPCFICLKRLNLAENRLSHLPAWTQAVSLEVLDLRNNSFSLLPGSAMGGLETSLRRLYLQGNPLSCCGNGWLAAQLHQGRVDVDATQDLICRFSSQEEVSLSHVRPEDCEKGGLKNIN

Molecule	Kd [1] [nM]	(H) G/D (fold bias) [1] [fold]	matrix/LTBP-bias in relative affinities between at least one matrix-associated and at least one cell-associated complex [2]	Kd [2, 8] [nM]	(H) G/D (fold bias) [2] [fold]	(F) hLRRC33, Cell-associated proTGFβ1 KD [3]	(E) hGARP, Cell-associated proTGFβ1 KD [4]	(C) hLTBP3, Matrix-associated proTGFβ1 KD [5]	(B) hLTBP1, Matrix-associated proTGFβ1 KD [6]	Kd [7] [nM]	Kd [2, 9] [nM]	average affinity for human LTBP1-/LTBP3-proTGFβ1 relative to human GARP-/LRRC33-proTGFβ1 complexes (LTBP-biased) ([2]; solution equilibrium titration)
B1	0.699	4.352	more than five-fold	4.65	3.87	6.30E−09	3.00E−09	1.20E−09	1.20E−09	0.161		
B2	0.715	4.424	more than five-fold		6.75	1.60E−09	1.10E−09	1.80E−10	2.20E−10	0.162	0.2	proTGFβ1 and LTBP3-proTGFβ1 complexes is at least five-fold
B3	0.695	2.147		0.114	2.71	2.00E−10	2.70E−11	3.30E−11	5.00E−11	0.324	0.042	
B4	0.304	1.965		0.024	2.00	4.30E−11	5.50E−12	1.10E−11	1.20E−11	0.155		
